The values below come from patent EP4670742A1, “ANTI-CD79B ANTIBODY DRUG CONJUGATES” (priority 2024, dated 2025).

Assay [1] deals with T1, Human CD79b (AA 29-159)-6-His (Homo sapiens, UniProt P40259).
T1 construct: 6-His (C)
T1 sequence (P40259 29-159): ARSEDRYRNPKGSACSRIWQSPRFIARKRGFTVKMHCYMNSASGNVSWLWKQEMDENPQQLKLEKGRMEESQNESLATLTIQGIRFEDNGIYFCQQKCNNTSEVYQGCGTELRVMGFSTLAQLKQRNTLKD
Description: Binding affinity to recombinant human CD79b (ka, kd, KD). An excerpt:
The binding ligand used in the assay was recombinant human CD79b having the amino acid sequence of Ala29-Asp159 of human CD79b, which was fused with a 6-His tag at the C terminus. Table 3 provides the measured association rate (ka), dissociation rate (kd), and equilibrium dissociation constant (KD). Table 3: Binding Affinity

The subject of assay [2] is DLBCL GCB CDX (OCI Ly19) Tumors. Put plainly: In vivo growth inhibition of xenografted tumors. An excerpt:
Based on an endpoint of 1000 mm3.

Assay [3] concerns the target T2, Human CD79b (AA 29-159)-6-His (human, UniProt P40259 29-159).
T2 construct: range 29-159; No linker between CD79b and the tag is stated
T2 sequence: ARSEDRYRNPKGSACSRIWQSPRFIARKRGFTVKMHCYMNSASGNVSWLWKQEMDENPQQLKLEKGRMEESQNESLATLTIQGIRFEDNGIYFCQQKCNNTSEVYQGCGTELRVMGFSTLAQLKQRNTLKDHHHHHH
Description: kinetic binding assay, method not named; recombinant human CD79b (29-159)-6-His.

As a reminder, the Kd is the free concentration of one partner at which half of the binding sites on the other are occupied at equilibrium, for simple one-to-one binding. For Polatuzumab vedotin-piiq, in assay [1] (association rate), the ka is 1.7e+07 M⁻¹ s⁻¹. Further, the kd in assay [1] (dissociation rate) turned out to be 0.0087 s⁻¹. Besides, the Kd in assay [1] (equilibrium dissociation constant) is 5 nM. In assay [2] (FIG. 2, compared to vehicle controls, all dose levels tested), the “tumor growth inhibition and tumor growth delay” value is on record as “statistically significant”. For the same molecule, in assay [2] (dose 3x, control Vehicle), the “CR (%)” value is listed as “No CRs”, the “PR (%)” value was 0% and the “TR (%)” value is 0%. For the same molecule, the “TGD (%)” value in assay [2] (dose 3x, control Vehicle, end of study) came to 90%. Also, the “CR (%)” value in assay [2] (dose 3x, control Vehicle, listed as polatuzumab vedotin-piiq) was determined as 0%. The “TGI (%)” value in assay [2] (dose 3x, single bolus intraperitoneally on day zero, control Vehicle, day 10 post dosing) is on record as 84%.
As a reminder, the koff is the rate constant with which the complex falls apart. In general, kon refers to a measure of how fast the partners come together. As to Polatuzumab vedotin-piiq (antibody), in assay [3], the Kd came out at 5 nM, the koff came to 0.0087 s⁻¹ and the kon was determined as 1.7e+07 M⁻¹ s⁻¹.

B1: ADC-1 (antibody, human IgG1, kappa, V domains shown)
VH: EVQLVESGGGLVQPGGSLRLPCAASGFTFYNYWITWIRQAPGKGLEWVANINQAGSEKSYLDAVKGRFTISRDNAKNSVYLQMNSLRVEDTAVYYCAGGFRAFDIWGQGTMVTVSS
VL: DFVLTQSPLSLSVTPGEPASISCRSSQSLLHSSGESYLDWFLQRPGQSPQVLIYLGSHRASGAPDRFSGSGSGTDFTLKISRVEAEDVGVYYCMQALQTPLTFGGGTRVEIKR
modifications: Top1i linker drug LD1 (formula III) linked via sulfhydryl groups of cysteine residues; n is 6 for the whole antibody (DAR = 6.05); conjugated positions and split between the chains not stated
notes: Antibody drug conjugate of Ab1 (IgG1, human kappa); also called anti-CD79b Top1i ADC; anti-CD79b ADC of formula (IV) with Ab1, n is 6
B1: in assay [3], the Kd was 4 nM, the koff was 0.00068 s⁻¹ and the kon was 170000 M⁻¹ s⁻¹.
